For this assay, the target named is TRAF6 dm (amino acids 1-274) fused to the GAL4 DNA binding domain (pGBT9-TRAF6 dm) (yeast; human) (UniProt P04386). Put plainly: cell-based or functional assay.

Consider “recombinant TRAF6-inhibiting protein fused with the transcription activation domain of GAL4 (full length cDNA in pGAD424, expressed in yeast Y190) (from UniProt Q8TD23 1-568)”, for which the β-galactosidase activity titer (liquid β-galactosidase assay, yeast two-hybrid) came out at 21 unit.

Values taken from patent US20040109854A1.
